Measured values published in US20160138004A1 (Hoffmann-La Roche, published 2016).

Tests used:
[1] = target: T1, native recombinant human IGF-1 (human, UniProt P05019 49-118); experiment: SPR kinetics at 37 °C, clone culture supernatant, IGF-1 as analyte
T1 construct: In the ELISAs it was biotinylated and held on streptavidin plates; also called native IGF-1; native human IGF-1 (Peprotech)

[2] = target: T1, native recombinant human IGF-1; experiment: SPR at 37 °C, clone culture supernatant antibody captured
[3] = target: T2, Thermus thermophilus SlyD-IGF-1(74-90) fusion polypeptide; experiment: as above
T2 construct: also called Thermo Thermophilus SlyD-IGF-1 fusion polypeptide; Thermus thermophilus-IGF-1 fusion polypeptide
T2 chain: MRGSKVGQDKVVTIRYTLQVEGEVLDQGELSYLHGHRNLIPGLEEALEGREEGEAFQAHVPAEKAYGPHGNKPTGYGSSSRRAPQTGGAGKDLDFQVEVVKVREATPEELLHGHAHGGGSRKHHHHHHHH

[4] = target: T2, Thermus thermophilus SlyD-IGF-1(74-90) …; experiment: SPR at 25 °C, mAb captured, antigen as analyte
[5] = target: T2, Thermus thermophilus SlyD-IGF-1(74-90) …; experiment: ELISA, clone culture supernatant

B1: <IGF-1>M-11.11.17 (antibody, V domains shown)
VH: QVQLQQSGAELVRPGSSVKISCKASGYAFSNLWMNWVKQRPGQGLEWIGQIYPGDGDTNYYGDFKGKATLTADSSSSTAYMQLSRLTSEDSAVYFCARIGYYGMDYWGQGTSVTVSS
VL: DVVLTQTPLSLPVNIGDEASISCKSTKSLLSSDGLTYLDWYLQKPGQSPQVLIYLVSNRFSGVPDRFSGSGSGTDFTLKISRVEAEDLGVYYCFQSNYLPTFGAGTKLELK
Ka [1]: 2.2e+10 M⁻¹ | Kd [1]: 0.046 nM | koff [1]: 0.00014 s⁻¹ | kon [1]: 3.1e+06 M⁻¹ s⁻¹ | koff [2]: 1e-05 s⁻¹ | koff [3]: 1e-05 s⁻¹ | Kd [4]: 0.01 nM | koff [4]: 1e-05 s⁻¹ | kon [4]: 710000 M⁻¹ s⁻¹ | reactivity [5]: 2150 mE
